Assay results: US20070037246A1 (LIFESENSORS, published 2007)

Biological target: 6xHis-CTHS-GFP fusion protein (yeast (SUMO/Smt3 part))
Test: mixing of purified proteins in solution, complex shown by Ulp1 cleavage (FIG. 7A)
Method: FIG. 7A depicts the experimental results obtained when combining NTHS and CTHS-GFP in solution, resulting in assembly and formation of a cleavable complex. 6xHis-CTHS-GFP fusion protein purified from E. coli was incubated with SUMO hydrolase Ulp1 and 6xHis-NTHS (lanes […]), with 6xHis-NTHS (lanes 1-3) or Ulp1 (lanes 7-9). Release of free GFP can be observed only when all the components are present in the reaction mix. […] Furthermore, purification tags such as, but not limited to 6xHis, GST, MBP, a sequence facilitating covalent coupling to solid support such as Cys residue, may be attached to either the amino- and/or carboxy-termini of NTHS.

B1: 6xHis tagged NTHS (other)
chain: MGHHHHHHGSDSEVNQEAKPEVKPEVKPETHINLKVSDGSSEIFFKIKKTTPLRRLMEAFAK
notes: Purified from E. coli and used in solution in the reconstitution and cleavage experiments; also called 6xHis-NTHS
binding result: binds
